# Laboratory results published in patent US20190137501.
# B1: protein-tyrosine phosphatase 1b (PTP1b) (protein)
# chain: MEMEKEFEQIDKSGSWAAIYQDIRHEASDFPCRVAKLPKNKNRNRYRDVSPFDHSRIKLHQEDNDYINASLIKMEEAQRSYILTQGPLPNTCGHFWEMVWEQKSRGVVMLNRVMEKGSLKCAQYWPQKEEKEMIFEDTNLKLTLISEDIKSYYTVRQLELENLTTQETREILHFHYTTWPDFGVPESPASFLNFLFKVRESGSLSPEHGPVVVHCSAGIGRSGTFCLADTCLLLMDKRKDPSSVDIKKVLLEMRKFRMGLIQTADQLRFSYLAVIEGAKFIMGDSSVQDQWKELSHEDLEPPPEHIPPPPRPPKRILEPHNGKCREFFPNHQWVKEETQEDKDCPIKEEKGSPLNAAPYGIESMSQDTEVRSRVVGGSLRGAQAASPAKGEPSLPEKDEDHALSYWKPFLVNMCVATVLTAGAYLCYRFLFNSNT
# Biological target: epidermal growth factor receptor (EGFR)
protein,measurement,value
B1,EGFR Y1173 phosphorylation (semi-quantitative Western blot),inhibition of PTP1b increased EGFR Y1173 phosphorylation in GFP control cells treated with 0.25 nM EGF
